From PMC8786284, “Serine acetyltransferase from Neisseria gonorrhoeae; structural and biochemical basis of inhibition” (Biochemical Journal, 2022) come the findings set out here.

The term IC50 denotes the point on the concentration scale where inhibition reaches its midpoint. A high value points to a need for much substance. In general, Km refers to the concentration of substrate that gives half-maximal velocity. Usually kcat stands for the maximal rate divided by the concentration of active sites. As usually defined, the kcat/Km is the second-order rate constant that governs catalysis at low substrate concentration. What is called stoichiometry N is the number of molecules, sites or subunits per partner or assembly.

Data set [1] has as its target T1, Serine acetyltransferase (NgSAT) (Neisseria gonorrhoeae, UniProt Q5F6X0).
T1 construct: gene NGO_1423; full-length, N-terminal His-tag, hexamer
Kind of data set: biochemical.

Substrate in the data set “purified protein”: N[C@@H](CO)C(=O)O
The data set can be described thus: purified protein. The data set is classed as biochemical, Neisseria gonorrhoeae. To be noted: active site between adjacent monomers; Asp96, Asp161, His162, Arg196, His197.

Substrate in data set [2]: CC(=O)SCCNC(=O)CCNC(=O)[C@H](O)C(C)(C)COP(=O)(O)OP(=O)(O)OC[C@H]1O[C@@H](n2cnc3c(N)ncnc32)[C@H](O)[C@@H]1OP(=O)(O)O
The data set can be described thus: Michaelis-Menten kinetics (KM) with purified enzyme. It is filed as biochemical, Neisseria gonorrhoeae.

Data set [3] concerns the molecule itself. The data set can be described thus: SEC; Enrich 650 analytical gel filtration column calibrated with Gel Filtration Standards (Bio-Rad); 50 mM Tris pH 8.0, 100 mM NaCl; oligomeric state of NgSAT. On the technique in general: SEC sorts molecules by how far they enter the pores of the column.
Data set [4] deals with the molecule itself. The data set can be described thus: SEC-SAXS; Superdex 200 5/150 in line with SAXS, co-flow; 50 mM Tris pH 8.0, 100 mM NaCl, without or with 50 µM L-cysteine; 25°C; mass from Porod volume and P(r) analysis.

`CC(C)(COP(=O)(O)OP(=O)(O)OC[C@H]1O[C@@H](n2cnc3c(N)ncnc32)[C@H](O)[C@@H]1OP(=O)(O)O)[C@@H](O)C(=O)NCCC(=O)NCCS` [coenzyme A]: in data set [1], the IC50 amounted to 573 ± 11 µM.

B1: Neisseria gonorrhoeae serine acetyltransferase (enzyme, Neisseria gonorrhoeae MS11, UniProt Q5F6X0 1-272, looked up)
chain: MKKNHLNTTGFDLWHTIREETAAAAAAEPMLASFLHQTVLRHESLGSVLAYHLSSKLGSPIMDVRALFEIYQQALGSDTQISKCVEADLKAIYERDPACDEYSLPLLYFKGFHAIQAHRINHRLYLDGRKTLAYFLQNRMSEVFGVDIHPAARLGYGLMLDHATGFVAGETAVLGNNISILHGVTLGGSGKEGGDRHPKIGDGVMIGANASILGNIRIGSNAKIGAGSVVVSDVPPSITVVGVPAKPVARSLKTPSADMDQNIQFAEIDFMI
notes: 272-residue polypeptide (N-terminal domain 1-144, LbetaH domain 145-272) with an uncleaved 21-residue N-terminal histidine tag; monomer with tag 31.6 kDa; Hexamer (dimer of trimers); also called NgSAT; SAT; source: E. coli BL21 (DE3), purified (HisTrap IMAC, gel filtration); not shown: His-tag, N-terminal, kept
Take B1: in the data set “purified protein”, the Km worked out at 1210 ± 160 µM, the kcat stood at 1440 ± 41 s⁻¹ and the kcat/Km is 1.19e+06 M⁻¹ s⁻¹. Moreover, in data set [2], the Michaelis constant (Km) is 149 ± 50 µM, the kcat amounted to 1180 ± 111 s⁻¹ and the kcat/Km was 7.89e+06 M⁻¹ s⁻¹. For the same molecule, the “stoichiometry N” value in data set [3] amounted to 6. Further, in data set [4], the “stoichiometry N” value turned out to be 6.1 monomers per structure.
